B1: TPR t1 (parent)
chain: GACCAAUCUGCCCUCAGAGCUCGAGAACAUCUUCGGAUGCAGAGGAGGCAGGCUUCGGUGGCGCGAUAGCGCCAACGUCCUCAACCUCCAAUGCAUCCCACCACAUGAUGAUGCCUGAAGAGCCUUGGUUUUUUG

Variants of: B1
Test: polymerase ribozyme fitness, log enrichment relative to wild type (log ratio); higher = more active; in vitro selection for triplet polymerase activity
Summary of the method: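 The heterodimeric triplet polymerase ribozyme's subunits were each mutagenized into PCR-built libraries and transcribed. Every library was selected once, in triplicate, by annealing with a biotinylated primer, the partner subunit and triplets, incubating frozen at −7 °C, gel-excising extended constructs, capturing on streptavidin beads and running RT-PCR. Input and output libraries were Illumina-sequenced, with genotypes kept only at ≥10 input reads and ≥1 read per output. Fitness, from inverse-variance-weighted replicate averages, is the base-2 logarithm of genotype enrichment over wild-type enrichment.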

Variant	polymerase ribozyme fitness (log ratio)
G69A C73A	-2.75
C12A G63U C70G C89A A90U A100U A121G	-1.48
G71U C104A	-1.81
C62A G120U	0.191
A43C G69A U112C G135A	-4.59
C49U G65C C104G C123A	-7.83
C72U G113C C123G	-1.69
A2C G77U	-2.28
G60A G61U G127C	-5.15
C94G G117A	-2.51
A37U C72A C98A C123G	-5.43
U7C G61U	0.179
G44A A100C G110A	-4.23
U9G G35U A111U	-6.59
C3U C11U U33A	-4.58
G47C A90U	-4.3
C13G G63A	-2.24
A37U C86G C88U C104U U106A G113A C124G G127A	-4.82
G44A G60A U106G U112A	-1.83
C12U U21A G35A	-4.8
G19A G63A U92A	-4.56

Variant	polymerase ribozyme fitness (log ratio)
C56U A121U	1.6
U14G G47C C70U C85G G117A	-7.02
A6G G77U C82A C104U A121U U130A	1.36
C34A C73A	-2.46
A46G U54G C62G U78C C123U	-4.11
U81C C124A	0.431
G45U G51A C94G	-5.45
C13G C40G	-0.654
C98U C104U U112A	-2.26
C104G C114G G120A U126C U133G	-5.9
U7A G10C U21A C56U	-2.02
C15G C20U C73U U78G A111G	-6.71
C82A U112G	0.0724
G25U C34U G63C G93C G117C A121C G122A G127U	-6.74
U96C G128U	-1.67
A41U G60A C80U	-3.75
G57U G77U G122A	-1.42
C20U G60A G107C G120C	-5.52
G39A C56U G107U A111U U129A	-5.29
G60C G117A	-0.79
C13G C62U U125A	-1.62

Variant	polymerase ribozyme fitness (log ratio)
C13G G42U C49U G61U	-3.55
A46U C73A C123G G127A	-0.933
C49A G135U	-1.83
A43U U96C C101A G122A G127A	-5.79
G42C G120A U132A	-0.616
C31G A50C U109G U131A	-4.54
C11U U14C U38G	-4.03
C82U G113U	-2.32
C62A C72U A75C C85A U129C	-2.55
G60A U106A	-0.15
G19A U87G A105C A111C	-4.37
U106A G122A	-0.693
A46U A74U G113A	-1.99
G71U G122A	-0.705
C76U C88U	-0.561
A18C U55C C62U	-3.73
G52A G69U C79G U87A A90U U116A	-3.3
C12U G42C C73A G122A	-0.687
G58C C115G C123A G135A	-3.89
G17C G61A G120C	-1.39
C94A A105C	-4.8

Variant	polymerase ribozyme fitness (log ratio)
U21C C62U A84C	-0.909
G17U G117C	-5.24
A18U U54G C114U	-4.87
G10U C72U C80U	-0.683
C11U U33A	-4.31
C15U A46C C70G	-4.3
C15U A43G C124A	0.00445
C76U C82A G120A	0.131
U9C G71A	0.0862
A5U G44C C73U	-1.65
C4G C13A C89A U130C	-3.33
C86A U112C	-0.51
G44A C76A C123G	0.122
C12G U14A A26U C72U A90G C123A	-2.58
U116C U132C	-1.33
G39A C124G	1.36
G47U G48U C56A C73A A118G	-3.88
A6C A29U C56U C94A U112G	-3.35
C28G A41C	-4.58
A16U U21G C114U	-4.99

From the RNAGym collection of RNA variant scans (doi:10.1073/pnas.2313332121)
